Assay results from patent US20050048594.

Columns and labels:
[1] = system: T1, CF3-CO N-capped-AKTide (CF3-CO-ARKRERAYSFGHHA)
T1 sequence: ARKRERAYSFGHHA

[2] = system: T2, peptide ARKRERAF(3-CF3)SFGHHA
T2 sequence: ARKRERAFSFGHHA

Substance: WtAKT1 recombinant protein (activated protein Ser/Thr kinase AKT1)
- phosphorylation of the peptide followed by 19F NMR (time to complete conversion; 50 nM AKT1, 30 uM peptide, 131 uM ATP) [1]: The enzymatic reaction is complete after 149 minutes and only the signal of the phosphorylated peptide is visible in the spectrum
- phosphorylation of the peptide followed by 19F NMR (25 nM AKT1) [2]: The peptide is a good substrate for AKT1 and trypsin
